Reference: article PMC7652391

Molecular target: Mature human mitochondrial heat shock protein family D member 1 (HSPD1) (human), P10809
Test: cryo-EM structure; single-particle cryoEM of reconstituted oligomeric HSPD1; grids by TED (6 and 50 ms), chameleon (54 ms) and Vitrobot (6 s blot); 50 mM Tris, 300 mM NaCl, 10 mM MgCl2 pH 8; consensus reconstructions in C1 and C7 symmetry
Conditions: remark: other sources report otherwise

stoichiometry N: 7
B1: Mature human mitochondrial heat shock protein family D member 1 (HSPD1), P10809 27-573 (natural protein)
chain: AKDVKFGADARALMLQGVDLLADAVAVTMGPKGRTVIIEQSWGSPKVTKDGVTVAKSIDLKDKYKNIGAKLVQDVANNTNEEAGDGTTTATVLARSIAKEGFEKISKGANPVEIRRGVMLAVDAVIAELKKQSKPVTTPEEIAQVATISANGDKEIGNIISDAMKKVGRKGVITVKDGKTLNDELEIIEGMKFDRGYISPYFINTSKGQKCEFQDAYVLLSEKKISSIQSIVPALEIANAHRKPLVIIAEDVDGEALSTLVLNRLKVGLQVVAVKAPGFGDNRKNQLKDMAIATGGAVFGEEGLTLNLEDVQPHDLGKVGEVIVTKDDAMLLKGKGDKAQIEKRIQEIIEQLDVTTSEYEKEKLNERLAKLSDGVAVLKVGGTSDVEVNEKKDRVTDALNATRAAVEEGIVLGGGCALLRCIPALDSLTPANEDQKIGIEIIKRTLKIPAMTIAKNAGVEGSLIVEKIMQSSSEVGYDAMAGDFVNMVEKGIIDPTKVVRTALLDAAGVASLLTTAEVVVTEIPKEEKDPGMGAMGGMGGGMGGGMF
